Patent US20230265201A1 (published 2023)

Tests used:
[1] = biological target: T1, recombinant human CD70 (Flag-TNC-CD70) (human, UniProt P32970 39-193); experiment: CD27-CD70 inhibition ELISA, human Flag-TNC-CD70
T1 construct: extracellular domain; also called recombinant CD70; human Flag-TNC-CD70; not shown: Flag tag and TNC trimerisation domain
T1 sequence (looked up): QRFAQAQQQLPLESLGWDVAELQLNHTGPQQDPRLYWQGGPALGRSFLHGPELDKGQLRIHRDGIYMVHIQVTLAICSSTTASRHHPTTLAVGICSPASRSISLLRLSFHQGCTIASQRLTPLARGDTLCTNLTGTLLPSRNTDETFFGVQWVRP

[2] = biological target: T1, recombinant human CD70 (Flag-TNC-CD70); experiment: blocking ELISA of Example 19: CD27 Fc chimera on anti-Flag-captured Flag-TNC-CD70
[3] = biological target: T2, rhesus recombinant CD70 (FLAG-TNC-rhesus CD70) (rhesus macaque (Macaca mulatta), UniProt F7GPA5 174-316); experiment: inhibition ELISA: CD27 binding to FLAG-TNC-rhesus CD70
T2 construct: also called rhesus Flag-TNC-CD70; Rhesus monkey; not shown: Flag tag and TNC trimerisation domain
T2 sequence: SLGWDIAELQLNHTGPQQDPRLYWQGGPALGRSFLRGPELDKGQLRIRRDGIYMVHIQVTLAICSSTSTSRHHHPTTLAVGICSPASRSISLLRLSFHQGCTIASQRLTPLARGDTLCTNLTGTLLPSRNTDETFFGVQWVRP
Description: In this assay, Flag-TNC-CD70 is captured by an anti-Flag mAb and binding of CD27-Fc is detected via a biotinylated anti-CD27 mAb and strep-HRP in the absence or presence of CD70 Fabs (FIGS. 2 and 3) or CD70 mAbs (FIG. 4). In FIG. 2B it can be seen that 27B3, which has an identical VH as 9D1, but contains a somewhat different light chain, seems to block binding of CD27 to CD70 more efficiently, which was in line with the better off rate of this Fab as measured on Biacore (data not shown). Table 3 indicates the blocking potency (expressed as IC50) for the various llama-human chimeric mAbs tested in the CD70 inhibition ELISA. […] FIG. 3 is a composite of an experiment testing llama CD70 Fabs for blocking activity (in the inhibition ELISA, see white bars) and for CD70 binding (binding ELISA, black bars). For the binding ELISA, Flag-TNC-CD70 is captured by an anti-Flag mAb and binding of the Fabs is detected using an anti-myc-HRP mAb, which recognizes the MYC tag fused to the C-terminus of the Fd fragment. For comparison purposes, known monoclonal antibodies to CD70 (SGN70 described in US 2010/0129362 A1, clone 1F6; and MDX69A7 described in WO2008/074004FIGS. 5A and 5B) were tested in parallel. […] Of interest is clone 59D10, which as Fab has no blocking activity, but when converted into a chimeric IgG was antagonistic (see Table 3). […]

[4] = biological target: T3, human CD70 on the surface of cells (human, UniProt P32970 1-193); experiment: cell-based or functional assay
T3 sequence (looked up): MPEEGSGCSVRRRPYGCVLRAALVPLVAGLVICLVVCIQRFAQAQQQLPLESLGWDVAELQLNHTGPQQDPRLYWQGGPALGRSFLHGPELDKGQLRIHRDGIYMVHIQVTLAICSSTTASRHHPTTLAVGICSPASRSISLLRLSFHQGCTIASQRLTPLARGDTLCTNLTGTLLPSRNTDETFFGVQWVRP

[5] = biological target: T4, rhesus recombinant CD70 (FLAG-TNC-rhesus CD70) (rhesus macaque (Macaca mulatta)) (UniProt F7GPA5); experiment: CD27-CD70 inhibition ELISA, rhesus Flag-TNC-CD70
T4 sequence: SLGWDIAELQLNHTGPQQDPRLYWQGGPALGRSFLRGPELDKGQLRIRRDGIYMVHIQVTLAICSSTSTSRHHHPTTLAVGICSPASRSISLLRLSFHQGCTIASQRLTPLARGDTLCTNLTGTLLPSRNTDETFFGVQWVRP

[6] = biological target: cynomolgus monkey Flag-TNC-CD70 (cynomolgus monkey); experiment: CD27-CD70 inhibition ELISA, cynomolgus Flag-TNC-CD70
[7] = biological target: T1, recombinant human CD70 (Flag-TNC-CD70); experiment: inhibition ELISA: CD27-Fc binding to anti-Flag-captured Flag-TNC-CD70
Experimental: From selected phage transfected into TG1, individual colonies were picked randomly for growth in 96 well plates. After IPTG induction according to standard protocols periplasmic fractions (peris) containing Fabs were prepared. […] In this assay, Flag-TNC-CD70 is captured by an anti-Flag mAb and binding of CD27-Fc is detected via a biotinylated anti-CD27 mAb and strep-HRP in the absence or presence of CD70 Fabs (FIGS. 2 and 3) or CD70 mAbs (FIG. 4). In FIG. 2B it can be seen that 27B3, which has an identical VH as 9D1, but contains a somewhat different light chain, seems to block binding of CD27 to CD70 more efficiently, which was in line with the better off rate of this Fab as measured on Biacore (data not shown). Table 3 indicates the blocking potency (expressed as IC50) for the various llama-human chimeric mAbs tested in the CD70 inhibition ELISA. […] FIG. 3 is a composite of an experiment testing llama CD70 Fabs for blocking activity (in the inhibition ELISA, see white bars) and for CD70 binding (binding ELISA, black bars). For the binding ELISA, Flag-TNC-CD70 is captured by an anti-Flag mAb and binding of the Fabs is detected using an anti-myc-HRP mAb, which recognizes the MYC tag fused to the C-terminus of the Fd fragment. […]

## MDX1411 mAb (antibody)
[1]
  IC50: 0.044 µg/mL
[2]
  IC50: 5.5 µg/mL

B1: 57B6 chimeric llama-human mAb (antibody, V domains shown)
VH: QLQLVESGGGLVQPGGSLRLSCAASGFSFSHYAMSWVRQAPGKGLEWVSGDNTYDGGTRYQDSVKGRFTISRDNGKNTLYLQMNSLKPEDTAVYYCAKDTGRGIMGEYGMDYWGKGTLVTVSS
VL: QTVVTQEPSLSVSPGGTVTLTCGLKSGSVTSSNYPAWYQQTPGQAPRLLIYNTNSRHSGVPSRFSGSISGNKAALTITGAQPEDEADYYCALYMGSGSANAMFGGGTHLTVLG
[3]
  IC50: 0.135 µg/mL

B2: SGN70 mAb (antibody, INN chains, looked up, V domains shown)
VH: QVQLVQSGAEVKKPGASVKVSCKASGYTFTNYGMNWVRQAPGQGLKWMGWINTYTGEPTYADAFKGRVTMTRDTSISTAYMELSRLRSDDTAVYYCARDYGDYGMDYWGQGTTVTVSS
VL: DIVMTQSPDSLAVSLGERATINCRASKSVSTSGYSFMHWYQQKPGQPPKLLIYLASNLESGVPDRFSGSGSGTDFTLTISSLQAEDVAVYYCQHSREVPWTFGQGTKVEIK
[4]
  IC50 of IL-8 secretion, Raji / HT1080-CD27 co-culture: 0.055 µg/mL
[1]
  IC50: 0.054 µg/mL
[5]
  IC50: 0.178 µg/mL
[6]
  IC50: 0.112 µg/mL
[7]
  IC50: 0.33 µg/mL
[2]
  IC50: 4.97 µg/mL

B3: 27B3 chimeric llama-human mAb (antibody, V domains shown)
VH: EVQLVESGGGLVQPGGSLRLSCAASGFTFSVYYMNWVRQAPGKGLEWVSDINNEGGTTYYADSVKGRFTISRDNAKNTLTLQMNSLKPEDTALYYCVRDAGYSNHVPIFDSWGQGTQVIVAS
VL: QAVVTQEPSLTVSPGGTVTLTCGLKSGSVTSTNFPTWYQQTPGQAPRLLIYNTNTRHSGVPSRFSGSISENKAALTITGAQPEDEAEYFCALFISNPSVEFGGGTQLTVLS
notes: also called SIMPLE antibody 27B3; mAb 27B3
[4]
  Raji co-culture assay IC50 relative to 27B3: 1 fold relative to 27B3
[3]
  IC50: 0.15 µg/mL

B4: 9D1 chimeric llama-human mAb (antibody, V domains shown)
VH: EVQLVESGGGLVQPGGSLRLSCAASGFTFSVYYMNWVRQAPGKGLEWVSDINNEGGTTYYADSVKGRFTISRDNAKNTLTLQMNSLKPEDTALYYCVRDAGYSNHVPIFDSWGQGTQVIVAS
VL: QAVVTQEPSLSVSPGGTVTLTCGLSSGSVTSSHYPGWYQQTPGQAPRLLIFNTNSRHSGVPSRFSGSISGNKAALTITGAQPEDEADYYCALLNIDDGSTMFGGGTHLTVLG
notes: also called mAb 9D1
[7]
  fold less potent than 27B3 mAb: 3 fold

B5: 41D12 mAb (human IgG1, HEK293) (antibody, V domains shown)
VH: EVQLVESGGGLVQPGGSLRLSCAASGFTFSVYYMNWVRQAPGKGLEWVSDINNEGGTTYYADSVKGRFTISRDNSKNSLYLQMNSLRAEDTAVYYCARDAGYSNHVPIFDSWGQGTLVTVSS
VL: QAVVTQEPSLTVSPGGTVTLTCGLKSGSVTSDNFPTWYQQTPGQAPRLLIYNTNTRHSGVPDRFSGSILGNKAALTITGAQADDEAEYFCALFISNPSVEFGGGTQLTVLG
[4]
  Raji co-culture assay IC50 relative to 27B3: 1.2 fold relative to 27B3

B6: 35G2 mAb (human IgG1, HEK293) (antibody, V domains shown)
VH: EVQLVESGGGLVQPGGSLRLSCAASGFTFSVYYMNWVRQAPGKGLEWVSDINNEGGTTYYADSVKGRFTISRDNAKNTLYLQMNSLKPEDTAVYYCARDAGYSNHVPIFDSWGQGTLVTVSS
VL: QTVVTQEPSFSVSPGGTVTLTCGLKSGSVTSTNFPTWYQQTPGQAPRLLIYNTNSRHSGVPDRFSGSILGNKAALTITGAQADDEADYFCALFISNPSVEFGGGTQLTVLG
[4]
  Raji co-culture assay IC50 relative to 27B3: 1.4 fold relative to 27B3

B7: 53A2 mAb (human IgG1, HEK293) (antibody, V domains shown)
VH: EVQLVESGGGLVQPGGSLRLSCAASGFTFSVYYMNWVRQAPGKGLEWVSDINNEGGTTYYADSVKGRFTISRDNSKNSLYLQMNSLRAEDTAVYYCARDAGYSNHVPIFDSWGQGTLVTVSS
VL: QAVVTQEPSFSVSPGGTVTLTCGLKSGSVTSDNFPTWYQQTPGQAPRLLIYNTNTRHSGVPDRFSGSILGNKAALTITGAQADDEAEYFCALFISNPSVEFGGGTQLTVLG
[4]
  Raji co-culture assay IC50 relative to 27B3: 0.8 fold relative to 27B3

B8: 40F1 mAb (human IgG1, HEK293) (antibody, V domains shown)
VH: EVQLVESGGGLVQPGGSLRLSCAASGFTFSVYYMNWVRQAPGKGLEWVSDINNEGGATYYADSVKGRFTISRDNSKNSLYLQMNSLRAEDTAVYYCARDAGYSNHVPIFDSWGQGTQVTVSS
VL: QAVVTQEPSFSVSPGGTVTLTCGLKSGSVTSDNFPTWYQQTPGQAPRLLIYNTNTRHSGVPDRFSGSILGNKAALTITGAQADDEAEYFCALFISNPSVEFGGGTQLTVLG
[4]
  Raji co-culture assay IC50 relative to 27B3: 1.8 fold relative to 27B3

B9: 53H1 mAb (human IgG1, HEK293) (antibody, V domains shown)
VH: EVQLVESGGGLVQPGGSLRLSCAASGFTFSVYYMNWVRQAPGKGLEWVSDINNEGGTTYYADSVKGRFTISRDNSKNSLYLQMNSLRAEDTAVYYCARDAGYSNHVPIFDSWGQGTLVTVSS
VL: QTVVTQEPSFSVSPGGTVTLTCGLKSGSVTSDNFPTWYQQTPGQAPRLLIYNTNTRHSGVPDRFSGSILGNKAALTITGAQADDEAEYFCALFISNPSVEFGGGTQLTVLG
[4]
  Raji co-culture assay IC50 relative to 27B3: 1.6 fold relative to 27B3
